From patent publication US20210163580A1 (NATIONAL HEALTH RESEARCH INSTITUTES, published 2021)
Positions of bridges follow the written chain, without caps; N, C: chain ends. No end group written: not given here.

How the values were obtained:
[1] = target: T1, recombinant human RSPO3 protein (human, UniProt Q9BXY4 22-272); assay: cell-based or functional assay
T1 sequence (looked up): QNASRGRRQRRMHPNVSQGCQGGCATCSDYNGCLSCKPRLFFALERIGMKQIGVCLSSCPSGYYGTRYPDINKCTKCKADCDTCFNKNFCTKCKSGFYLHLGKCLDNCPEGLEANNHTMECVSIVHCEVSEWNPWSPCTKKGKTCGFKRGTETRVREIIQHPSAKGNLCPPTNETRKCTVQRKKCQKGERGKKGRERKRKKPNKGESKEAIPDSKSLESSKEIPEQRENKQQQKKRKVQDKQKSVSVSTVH

[2] = target: T1, recombinant human RSPO3 protein; assay: SPR (Biacore T200); hRSPO3 immobilised on CM5 chip, antibody injected, single-cycle, 1:1 model
Description: FIG. 7 is a graph showing use of Biacore to measure the binding kinetics of α-RSPO3 Abs-antigen interaction. The binding sensorgrams were generated using a Biacore T200 and then fitted to a simple 1:1 interaction model. […] The association was monitored for 2 min, and the final dissociation time was 15 min hRSPO3 was immobilized on a CMS chip at 27.5 RU.
The binding kinetics between α-RSPO3 Abs and recombinant human RSPO3 protein (hRSPO3) were performed at 25° C. using a Biacore T200 biosensor equipped with a CMS Series S Sensor Chip (GE Healthcare). […] Obtained sensorgrams were corrected by double subtracting the signal obtained on a reference surface and the signal of the running buffer. Sensograms were fit globally with BIAcore T200 evaluation software 3.0 using 1:1 binding model to yield affinity constants (KD values) for α-RSPO3 Abs. Replicate measurements were made in separate experiments, using independently prepared α-RSPO3 Abs dilution series and huRSPO3-coated chip surfaces.

[3] = target: T1, recombinant human RSPO3 protein; assay: competition ELISA on coated hRSPO3; blocked ligand: biotinylated LGR5 (22-560)-Fc, streptavidin-HRP [A]
Description: After removing extra detection antibodies by washing the plates with 1× PBST, a TMB substrate solution was added to each well for 10 minutes.
Recombinant human RSPO3 (Peprotech) at 500 ng/ml was coated on the plates.

peptide B-40-47 = target: T2, peptide B-40-47 (Homo sapiens, UniProt Q9BXY4, disulfide (positions not given here); also: biotinylated, intrachain disulfide, Cys pairing not given here); assay: ELISA: biotinylated cyclic peptide (1 µg/ml) on NeutrAvidin plate, hB1, anti-human IgG-Fc-HRP, OD 450 [B]
T2 construct: synthetic cyclic peptide, a.a; also called cyclic peptide a.a; 40-47 derived from hRSPO3
T2 peptide (looked up): CQGGCATC
Description: (§1) FIG. 9 is a set of schematics and graphs showing epitope studies of several α-RSPO3 antibodies. […] Streptavidin-HRP was then added for detection of the bound biotinylated antibody. (B) The biotinylated cyclic peptides, at 1 μg/ml, and biotinylated recombinant human RSPO3, at 100 ng/ml, were applied to NeutrAvidin pre-coated plates. […] To detect bound anti-RSPO3 antibodies, Goat anti-human IgG-Fc-HPR (Chemicon) was then applied to the plates.
(§2) Further conformation epitope studies of α-RSPO3 Abs were performed using recombinant RSPO3 truncated proteins and cyclic peptides scanning to narrow down their target sequences. […] RSPO3 contains a furin-like cysteine-rich region. Until now, the 3D structure of RSPO3 has not been reported. Additionally, four cyclic peptides (a.a. 40-47, 44-53, 56-75 and 79-94) were designed to measure the binding of α-RSPO3 mAbs to the cyclic peptides derived from hRSPO3.

peptide B-44-53 = target: T3, peptide B-44-53 (Homo sapiens, UniProt Q9BXY4, disulfide (positions not given here); also: biotinylated, intrachain disulfide, Cys pairing not given here); assay: as above
T3 construct: synthetic cyclic peptide, a.a; also called cyclic peptide a.a; 44-53 derived from hRSPO3
T3 peptide (looked up): CATCSDYNGC
Description: as §1, §2

peptide B-79-94 = target: T4, peptide B-79-94 (Homo sapiens, UniProt Q9BXY4, disulfide 1-16 (inferred); also: biotinylated); assay: as above
T4 construct: synthetic cyclic peptide, a.a; also called cyclic peptide a.a; 79-94 derived from hRSPO3
T4 peptide (looked up): CPSGYYGTRYPDINKC
Description: as §1, §2

IC50 in the WNT reporter assay (MDA-MB436 TCF/LEF-Luc, Wnt3a plus hRSPO3) [1]: 58 nM
Kd [2]: 0.0268 nM
koff [2]: 3.4e-05 s⁻¹
kon [2]: 1.7e+06 M⁻¹ s⁻¹
IC50 (read off the curve) [3]: ~0.9 µg/mL
binding result (peptide B-40-47): no binding
binding result (peptide B-44-53): no binding
binding result (peptide B-79-94): no binding
B1: humanized anti-RSPO3 antibody hB1 (antibody, V domains shown)
VH: QIQLQESGPGLVKPSESLSLTCSVTGYSITSGYYWNWIRQFPGNGLEWMGYISYDGTNNYNPSLKDRISITRDTSKNQFFLKLNSVTAADTATYYCSVLLIQYFNIWGKGTTVTVSS
VL: DIQMTQSPSSLSASVGERVTITCRTSESVNNFLAWFHQKPGKSPKLLVYHAKTLADGVSSRFSGSGSGTQYSLKINSLQPEDFGNYYCQHFWSIPWTFGGGTKLEIKR
notes: Humanized from murine B1
